# Test results published in the RNAGym collection of RNA variant scans (doi:10.1073/pnas.2313332121).
# B1: TPR t1 (parent)
# chain: GACCAAUCUGCCCUCAGAGCUCGAGAACAUCUUCGGAUGCAGAGGAGGCAGGCUUCGGUGGCGCGAUAGCGCCAACGUCCUCAACCUCCAAUGCAUCCCACCACAUGAUGAUGCCUGAAGAGCCUUGGUUUUUUG
# Variants of: B1
# Experiment: polymerase ribozyme fitness, log enrichment relative to wild type (log ratio); higher = more active; in vitro selection for triplet polymerase activity
# How it was run: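 Fitness measures genotype enrichment against wild-type enrichment on a logarithmic scale, with inverse-variance-weighted averaging of replicates. The logarithm is base 2, and genotypes were kept only with ≥10 input reads and ≥1 read per output in Illumina sequencing. The sequenced libraries came from one triplicate in vitro selection round, including frozen incubation at −7 °C, of PCR-built, transcribed mutant libraries of each subunit of a heterodimeric triplet polymerase ribozyme.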
row,Variant,polymerase ribozyme fitness (log ratio)
1,A2G G35C,-3.63
2,C3U G110U,-1.54
3,A2U G35U,-6.73
4,A2G C15U A37U C101G C104A,-5.07
5,C3G C22A C124G G128C,-3.09
6,C3U A6U G57A G120C,0.153
7,C3U C40U A43G C53U C124U,-1.48
8,C3U U7G A84U C101U G110U U125A,-3.16
9,A2C G71U,-2.08
10,A2C G71A,-2.36
11,A2U A37C,-3.02
12,C3G C88G,-2.34
13,C3G C28U G61U G120C U125G,-4.18
14,A2U C8U A41C C56G G77U G122A,-2.93
15,A2U A83G,-3.47
16,C3U C20A G57A G60U G117A,-4.91
17,C3A G71A U130C,-0.935
18,C3A G57A C114U,-4.29
19,C4A C13U A26U G44U C49A C104U,-6.34
20,C3U G117A G120U,-2.21
21,C3U U54C C104A U131C,-2.52

row,Variant,polymerase ribozyme fitness (log ratio)
1,C3U G39C G44A G63A G77U U78A A119G,-2.88
2,C4A A74C C123G U133G,0.795
3,A2U C12G,-1.36
4,A2U C12A,-3.25
5,C3U U106A,-0.258
6,A2U A43G G45A C72G A84G A111U,-6.25
7,A2G G52C G60U,0.0795
8,C3A C56A G71A G127U,-3.57
9,C3U C13U C34U C62U C85U,-5.63
10,C3U U7C C86A A121G,2.02
11,C3U G17C G61C G117U,-5.52
12,C3G A16U U38G,-4.66
13,C3U A29G C53U G57C C86G,-4.64
14,C3U C8A G25A C31G C70G U92A C94A C98G C99G G117U,-6.98
15,C3U G120A,0.234
16,A2U C94U C104U,-2.44
17,C3G G93U C98U G128C,-2.57
18,A2U G45U,-3.96
19,A2G U54A G60C U106G,-2.29
20,A2G C11A C49G G71U C85A U92C,-2.64
21,C3A A18G G19C A90U C123U U129G,-0.538

row,Variant,polymerase ribozyme fitness (log ratio)
1,A2G C8G C70G,-2.83
2,C3A C72U C94G,-3.51
3,A2G G42A U54G C80A U112A,-6.02
4,A2U U32C C79A,-4.3
5,A2U C11U U21A,-1.96
6,A2G C8U U87A C89U C123A,1.08
7,C3U U14A C53G C64U G120A,0.544
8,A2U C8G,-0.639
9,C3G C13A,-3.57
10,A2G C34U,-4.37
11,C3U G17U C64U,-3.03
12,A2G G110A C124A,-0.428
13,C3G A46U,-2.71
14,C3U G61U U78G U92G G120A G127U,-2.24
15,C3G A29U C49A G57U A121G,-2.13
16,C3A C12U,-0.986
17,C3U C11G A24G C40U C62G,-3.32
18,C3U C12A G61C A84C U130C U133G,-2.37
19,A2U A5C G69A C86U,-6.09
20,A2U G36U A41U U54G,-6.42
21,A2U U54A C72A C101G U129A U130A,-2.15

row,Variant,polymerase ribozyme fitness (log ratio)
1,A2U C49A,-2.86
2,A2U U21A C49U,-4.09
3,C3U G17C G117U,-6.24
4,A2C U9G C20A G71A A121U,-3.49
5,A2G G69A C89G G110U,-6
6,C3U C73A G135U,-1.52
7,C3U C40G G42U C82U C89U C94U,-3.64
8,C3A A6G C13U C15G U59C,-3.21
9,A2U G60A C79U C80A A121G,-5.43
10,A2G U32C C40G C49A,-1.76
11,A2G U9G U106G U112C U130A,-0.197
12,A2C G77U,-2.28
13,C3U C11U U33A,-4.58
14,C3U C8A A16U U33A G44A G120C,-6.36
15,C3U G10A U21C G61A C98U A119U,-2.55
16,A2U C104A C124U U130A,-2.07
17,A2G C13U C53U C72G,-0.398
18,A2U C12A U55G G61A C102A C104U,-4.56
19,C4A A5G,-1.02
20,A2U C20U,-3.71
